The results in this text go back to article PMC9896449 (Nature Communications, 2023).

Assay [1] deals with ShAb02 (shark VNAR - human IgG1 Fc chimera) (nurse shark (Ginglymostoma cirratum)). The assay is described as follows: BLI. The conditions noted are these: both partners purified.
The target in assay [2] is ShAb01 (shark VNAR - human IgG1 Fc chimera) (nurse shark (Ginglymostoma cirratum)). The assay is described as follows: BLI. The conditions noted are these: both partners purified.

B1: SARS-CoV-1 RBD (domain or fragment)
chain: not shown
In the case of B1, the binding result in assay [1] is reported as “no binding”; in assay [2] it was “binds”.
